Reference: patent US20170247475A1
One block for each substance: values may come before it.

Legend:
hAng2 [1] = biological target: hAng2
hAng2 [2] = test: competition ELISA hAng2/hTie2-Fc; blocked: hTie2-Fc
hAng2 [3] = test: as above; remark: listed apart in the source
hAng2 [4] = test: as above; remark: listed apart in the source
mAng2 [5] = test: competition ELISA mAng2/mTie2-Fc; blocked: mTie2-Fc
mAng2 [6] = test: as above; remark: listed apart in the source
hAng2 [7] = test: competition ELISA, blocking of hAng2 binding to hTie2
hAng2 [8] = test: as above; remark: listed apart in the source
hAng2 [9] = test: as above; remark: listed apart in the source
mAng2 [10] = test: competition ELISA, blocking of mAng2 binding to mTie2
mAng2 [11] = test: as above; remark: listed apart in the source
mAng2 [12] = test: as above; remark: listed apart in the source
[13] = biological target: cAng2 (cynomolgus monkey); test: competition ELISA, blocking of cAng2 binding to cTie2
[14] = biological target: cAng2 (cynomolgus monkey); test: as above; remark: listed apart in the source
[15] = biological target: cAng2 (cynomolgus monkey); test: as above; remark: listed apart in the source
hAng2 [16] = test: competition ELISA, blocking of hAng2 binding to hTie2-Fc
hAng2 [17] = test: as above; remark: listed apart in the source
hAng2 [18] = test: as above; remark: listed apart in the source
mAng2 [19] = test: competition ELISA, blocking of mAng2 binding to mTie2-Fc
[20] = biological target: cAng2 (cynomolgus monkey); test: competition ELISA, blocking of cAng2 binding to cTie2-Fc
[21] = biological target: cyno serum albumin (cyno); test: SPR, albumin on chip, 1:1 interaction model
Sequence of cyno serum albumin (cyno) (A2V9Z4 25-608): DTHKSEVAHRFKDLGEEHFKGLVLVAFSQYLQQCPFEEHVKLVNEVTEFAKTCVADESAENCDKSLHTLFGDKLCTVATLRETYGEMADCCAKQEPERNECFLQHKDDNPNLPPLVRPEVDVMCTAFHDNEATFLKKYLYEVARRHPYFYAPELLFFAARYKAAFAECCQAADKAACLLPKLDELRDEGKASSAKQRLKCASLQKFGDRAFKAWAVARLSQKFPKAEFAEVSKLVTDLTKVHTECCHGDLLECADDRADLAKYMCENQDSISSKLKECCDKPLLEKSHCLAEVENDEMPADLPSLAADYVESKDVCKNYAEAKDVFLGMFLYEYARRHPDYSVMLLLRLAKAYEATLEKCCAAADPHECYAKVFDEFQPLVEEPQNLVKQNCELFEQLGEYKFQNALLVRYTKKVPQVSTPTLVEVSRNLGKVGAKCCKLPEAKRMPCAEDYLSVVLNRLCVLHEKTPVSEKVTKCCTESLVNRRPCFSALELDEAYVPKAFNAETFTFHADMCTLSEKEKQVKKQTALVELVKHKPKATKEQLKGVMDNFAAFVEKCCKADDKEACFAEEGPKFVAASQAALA

[22] = biological target: human serum albumin (human) (UniProt P02768); test: SPR, albumin on chip, 1:1 interaction model
[23] = biological target: mouse serum albumin (mouse) (UniProt P07724); test: SPR, albumin on chip, 1:1 interaction model
Sequence of mouse serum albumin (mouse) (P07724 25-608 limits assumed): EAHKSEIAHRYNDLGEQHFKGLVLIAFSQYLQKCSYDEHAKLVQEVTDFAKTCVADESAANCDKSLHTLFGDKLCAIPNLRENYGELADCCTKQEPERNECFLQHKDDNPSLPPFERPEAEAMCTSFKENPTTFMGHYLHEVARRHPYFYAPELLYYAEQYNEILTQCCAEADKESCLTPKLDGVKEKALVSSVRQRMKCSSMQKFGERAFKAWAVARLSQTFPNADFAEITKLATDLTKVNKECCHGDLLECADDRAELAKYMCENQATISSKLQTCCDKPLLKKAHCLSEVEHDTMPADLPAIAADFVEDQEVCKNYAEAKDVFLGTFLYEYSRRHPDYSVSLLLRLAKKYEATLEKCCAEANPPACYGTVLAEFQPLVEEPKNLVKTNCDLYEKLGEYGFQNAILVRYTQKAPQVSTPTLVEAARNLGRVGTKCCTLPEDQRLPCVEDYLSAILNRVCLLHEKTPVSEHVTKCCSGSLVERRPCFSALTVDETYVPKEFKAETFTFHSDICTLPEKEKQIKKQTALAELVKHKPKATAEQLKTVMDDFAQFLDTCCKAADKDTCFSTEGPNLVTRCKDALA

[24] = biological target: cyno serum albumin (cyno); test: SPR, albumin on CM5 chip, multicycle kinetics
[25] = biological target: human serum albumin (human) (UniProt P02768); test: SPR, albumin on CM5 chip, multicycle kinetics
[26] = biological target: mouse serum albumin (mouse) (UniProt P07724); test: SPR, albumin on CM5 chip, multicycle kinetics

Sequence of mAng2 (chain, as listed by the source limits assumed): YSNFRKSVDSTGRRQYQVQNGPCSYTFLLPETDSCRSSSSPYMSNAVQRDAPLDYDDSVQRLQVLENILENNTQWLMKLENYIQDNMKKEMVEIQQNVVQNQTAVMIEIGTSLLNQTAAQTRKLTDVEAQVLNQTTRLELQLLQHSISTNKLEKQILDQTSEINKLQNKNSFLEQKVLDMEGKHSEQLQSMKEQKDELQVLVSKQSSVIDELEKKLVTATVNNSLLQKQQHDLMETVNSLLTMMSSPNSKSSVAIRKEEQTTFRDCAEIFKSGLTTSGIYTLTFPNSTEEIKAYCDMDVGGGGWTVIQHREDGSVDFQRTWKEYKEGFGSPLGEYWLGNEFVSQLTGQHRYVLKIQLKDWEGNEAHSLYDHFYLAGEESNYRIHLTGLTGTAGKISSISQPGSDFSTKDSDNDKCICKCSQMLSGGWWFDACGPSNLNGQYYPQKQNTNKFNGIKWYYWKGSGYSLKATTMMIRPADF
Sequence of hAng2 (chain, as listed by the source limits assumed): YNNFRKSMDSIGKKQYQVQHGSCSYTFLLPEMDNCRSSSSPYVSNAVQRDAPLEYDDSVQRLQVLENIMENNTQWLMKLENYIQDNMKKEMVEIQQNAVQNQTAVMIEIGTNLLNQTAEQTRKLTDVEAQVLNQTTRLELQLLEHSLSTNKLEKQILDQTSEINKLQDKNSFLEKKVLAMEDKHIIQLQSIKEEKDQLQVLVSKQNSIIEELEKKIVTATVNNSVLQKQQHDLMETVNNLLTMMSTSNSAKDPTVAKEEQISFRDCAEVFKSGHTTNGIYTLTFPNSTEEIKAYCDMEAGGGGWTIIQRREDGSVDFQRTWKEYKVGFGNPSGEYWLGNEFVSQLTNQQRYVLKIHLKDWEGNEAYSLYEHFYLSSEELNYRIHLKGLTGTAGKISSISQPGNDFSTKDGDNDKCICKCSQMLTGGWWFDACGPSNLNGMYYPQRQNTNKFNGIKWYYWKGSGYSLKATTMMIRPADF

IC50 (read off the curve) (hAng2 [2]): 7 pM
IC50 (read off the curve) (hAng2 [3]): 4 pM
IC50 (read off the curve) (hAng2 [4]): 6 pM
IC50 (read off the curve) (mAng2 [5]): 6 pM
IC50 (read off the curve) (mAng2 [6]): 5 pM
IC50 (read off the curve) (hAng2 [7]): 3 pM
IC50 (read off the curve) (hAng2 [8]): 1 pM
IC50 (read off the curve) (hAng2 [9]): 6 pM
IC50 (read off the curve) (mAng2 [10]): 3 pM
IC50 (read off the curve) (mAng2 [11]): 1 pM
IC50 (read off the curve) (mAng2 [12]): 9 pM
IC50 (read off the curve) [13]: 3 pM
IC50 (read off the curve) [14]: 4 pM
IC50 (read off the curve) [15]: 30 pM
IC50 (read off the curve) (hAng2 [16]): 2 pM
IC50 (read off the curve) (hAng2 [17]): 3 pM
IC50 (read off the curve) (hAng2 [18]): 3 pM
IC50 (read off the curve) (mAng2 [19]): 2 pM
IC50 (read off the curve) [20]: 10 pM
Substance: AMG386
IC50 (read off the curve), hAng2 mediated HUVEC survival (hAng2 [1]): 1000 pM

Kd [21]: 4000 pM
Kd [22]: 4000 pM
koff [22]: 0.0019 s⁻¹
Kd [23]: 51000 pM
koff [23]: 0.03 s⁻¹
Kd [24]: 4000 pM
koff [24]: 0.0016 s⁻¹
Kd [25]: 4000 pM
koff [25]: 0.0018 s⁻¹
Kd [26]: 49000 pM
koff [26]: 0.032 s⁻¹
Substance: ALB11 (VHH)
